Where a chain is given by its changes, count along the chain named. Names may count otherwise.
B1: FadAc: recombinant active heterogeneous complex of pre-FadA and mFadA (protein)
chain 1: MKKFLLLAVLAVSASAFAATDAASLVGELQALDAEYQNLANQEEARFNEERAQADAARQALAQNEQVYNELSQRAQRLQAEANTRFYKSQYQELASKYEDALKKLEAEMEQQKAVISDFEKIQALRAGN
chain 2: ATDAASLVGELQALDAEYQNLANQEEARFNEERAQADAARQALAQNEQVYNELSQRAQRLQAEANTRFYKSQYQELASKYEDALKKLEAEMEQQKAVISDFEKIQALRAGN
B2: L14A (protein)
chain: B1 chain 2 with L14A
B3: S71A (protein)
chain 1: B1 chain 1
chain 2: B1 chain 2 with S71A
B4: L76A (protein)
chain: B1 chain 2 with L76A
B5: mFadA: cleaved mature form of FadA, 111 aa residues without the signal peptide (protein)
chain: B1 chain 2

System: anti-amyloid fibril antibody OC
Assay: Slot blot assay with anti-amyloid fibril antibody OC
Type: binding
Conditions: 10 μg recombinant protein; OC at 1:5,000 dilution
Protocol: (§1) FIG. 2A-2G. Pre-FadA as a key component of amyloid-like FadA. 2A. Single-letter amino acid (aa) sequence of FadA (SEQ ID NO:28). The intact pre-FadA consists of 129 aa, with the first 18-aa (top row) constitute the signal peptide. The remaining 111 aa constitute mFadA. The residues that are replaced in the mutant proteins used in this study are shown in red. 2B. Analysis of detergent resistant recombinant FadA polymers expressed in E. coli. An aliquot of 50 μg detergent-resistant pellets prepared from E. coli BL21(DE3) carrying the cloning vector pET21(b), pYWH417-6 (p_FadAc), or pYWH418 (p_mFadA) were analyzed by SDD-AGE, followed by Western blot analysis. FadA polymers were only detected in E. coli expressing FadAc, but not in mFadA or the vector control. 2C. Reactivity of recombinant FadA and its variants with anti-amyloid fibril antibody OC. A total of 10 μg each of recombinant protein mFadA, FadAc, FadA-L-9A, FadA-L14A, FadA-S71A, and FadA-L76A purified from E. coli was slot-blotted onto nitrocellulose and incubated with polyclonal OC antibody at 1:5,000 dilution. Amyloid-like recombinant Rim4 (Berchowitz et al., 2015) was used as a positive control and histone H1 was used as a negative control. Ponceau stain (pink color) is shown as a loading control. 2D. Thioflavin-T binding assay. FadA proteins at indicated concentrations were incubated with 10 μM Thioflavin-T at room temperature for 10 min. The fluorescent intensity was measured at excitation wavelength of 440 nm and emission wavelength of 500 nm. The experiment was performed in duplicate and repeated three times. *p<0.05, **p<0.01, ***p<0.001 (compared to BSA, t-test). 2E. Thioflavin-T binding assay in the presence of 0.1% SDS. FadA proteins (0.8 mg/ml) were incubated with 10 μM Thioflavin-T at room temperature for 10 min. The fluorescent intensity was measured at excitation wavelength of 440 nm and emission wavelength of 500 nm. The experiment was performed in duplicate and repeated three times. *p<0.05, **p<0.01 (compared to BSA, t-test). 2F. Western blot analysis of Fn12230 (Fn), fadA-deletion mutant US1 (ΔfadA) and spontaneous mutant lam following SDS-PAGE. A total of 400 μl of each culture grown to OD600 of 1.0 was pelleted and loaded onto 12% SDS-PAGE. FadA protein was detected using anti-FadA mAb 7H7 at 1:4,000 dilution. […] 2G. Analysis of amyloid-like FadA produced by Fn 23726 and its Δfap2 mutant. An aliquot of 50 μg detergent-resistant pellets was loaded onto each lane, followed by SDD-AGE and Western blot analysis as described above.
(§2) Slot blot assay. Ten micrograms each of purified recombinant protein was slot-blotted onto nitrocellulose membrane (BioRad) and assayed for reactivity with polyclonal anti-amyloid fibril antibodies OC (α-amyloid fibril OC, Sigma-Aldrich CAT #AB2286) at 1:5,000 dilution and goat-anti-rabbit IgG (GE Healthcare) at 1:10,000 dilution, or polyclonal anti-amyloid oligomer antibody A11 (α-oligomer A11 at 1:5,000 dilution, ThermoFisher Scientific CAT #AHB0052) and goat-anti-rabbit IgG at 1:10,000 dilution, followed by detection with ECL Prime (GE Healthcare). Amyloid-like recombinant Rim4 was used as a positive control (Berchowitz et al., 2015) and histone H1 was used as a negative control. Loading was assessed by Ponceau stain (Sigma CAT #P7170).

| Molecule | reactivity with anti-amyloid fibril antibody OC |
| --- | --- |
| B1 | reacted |
| B2 | did not react |
| B3 | reacted |
| B4 | did not react |
| B5 | not with the anti-fibril OC |

System: not listed separately
Assay: Circular dichroism (CD) test
Type: physicochemical
Conditions: wavelength range 190-250 nm; 0.2 mg/ml protein
Protocol: Circular dichroism (CD) test. CD was used to evaluate the secondary structure of FadA and its mutants. One hundred microliter of 0.2 mg/ml purified FadA was analyzed by Chirascan V100 Spectrometer using a 1 mm path-length fused quartz cell. The measurements are an average of three scans for each sample, captured at a scan rate of 1 sec., bandwidth and step size of 1 nm, over a wavelength range of 190-250 nm. CD spectra were recorded and analyzed with BestSel server (see www at bestsel.elte.hu/).

| Molecule | α helix (%) | β strand (%) |
| --- | --- | --- |
| B1 | 47.2 | 9.6 |
| B2 | 44.2 | 11.6 |
| B3 | 49.1 | 8 |
| B5 | 27.9 | 18.8 |

System: HCT116 xenograft tumors
Assay: not given
Conditions: shown previously (Rubinstein et al., 2013); cited from earlier work

| Molecule | stimulation of xenograft tumor growth |
| --- | --- |
| B1 | stimulated xenograft tumor growth |
| B5 | not |

System: anti-amyloid oligomer antibody A11
Assay: Slot blot assay with anti-amyloid oligomer antibody A11
Type: binding
Conditions: 10 μg recombinant protein; A11 at 1:5,000 dilution
Protocol: FIG. 8A-8C. 8A. SDS-PAGE analysis of recombinant FadAc and its variants. The proteins were purified as previously described (Xu et al., 2007). Approximately 2.5 μg of each purified protein were loaded onto 12% SDS-PAGE. Following electrophoresis, the gel was stained with Coomassie Blue G-250. 8B. Reactivities of recombinant FadA and its variants with anti-amyloid oligomer antibody A11. A total of 10 μg each of recombinant protein mFadA, FadAc, FadA-L-9A, FadA-L14A, FadA-S71A, and FadA-L76A purified from E. coli was slot-blotted onto nitrocellulose and incubated with polyclonal anti-amyloid oligomer antibody A11 at 1:5,000 dilution. Amyloid-like recombinant Rim4 (Berchowitz et al., 2015) was used as a positive control and histone H1 was used as a negative control. Ponceau stain (pink color) is shown as a loading control. 8C. Western blot analysis of wild-type Fn 23726 (1) and mutants Δfap2 (2) using anti-FadA mAb 7H7. The bottom panel is Coomassie blue stain for loading control.
as §2

| Molecule | reactivity with anti-amyloid oligomer antibody A11 |
| --- | --- |
| B1 | reacted |
| B2 | did not react |
| B3 | reacted |
| B4 | did not react |
| B5 | reacted weakly |

System: not listed separately
Assay: Thioflavin-T binding assay
Conditions: 0.1% SDS; FadA proteins 0.8 mg/ml; 10 μM Thioflavin-T
Protocol: as §1
Thioflavin-T binding assay. Thioflavin-T assay was conducted as previously described (Tukel et al., 2009). A mixture of 50 μl of FadA proteins and 50 μl of 10 μM Thioflavin-T was added to a black 96-well plate and incubated for 10 min at room temperature. After incubation, the fluorescence intensity was determined using a SpectraMax M5 microplate reader at excitation wavelength of 440 nm and emission wavelength of 500 nm. For SDS stability test, the FadA proteins were pre-incubated in 0.1% SDS for 30 min at room temperature, followed by Thioflavin-T binding assay as described above.

| Molecule | Thioflavin-T binding in the presence of 0.1% SDS |
| --- | --- |
| B1 | bound Thioflavin-T |
| B3 | bound Thioflavin-T |
| B5 | did not bind Thioflavin-T |

Same assay, conditions: without SDS; 10 μM Thioflavin-T; 10 min

| Molecule | Thioflavin-T binding |
| --- | --- |
| B2 | did not bind Thioflavin-T |
| B5 | bound more Thioflavin-T than FadAc |

System: not listed separately
Assay: SDD-AGE and Western blot of detergent-resistant polymers
Type: physicochemical
Conditions: expressed in E. coli; SDD-AGE, Western blot with mAb 7H7
Protocol: FIG. 2A-2G. Pre-FadA as a key component of amyloid-like FadA. 2A. Single-letter amino acid (aa) sequence of FadA (SEQ ID NO:28). The intact pre-FadA consists of 129 aa, with the first 18-aa (top row) constitute the signal peptide. The remaining 111 aa constitute mFadA. The residues that are replaced in the mutant proteins used in this study are shown in red. 2B. Analysis of detergent resistant recombinant FadA polymers expressed in E. coli. An aliquot of 50 μg detergent-resistant pellets prepared from E. coli BL21(DE3) carrying the cloning vector pET21(b), pYWH417-6 (p_FadAc), or pYWH418 (p_mFadA) were analyzed by SDD-AGE, followed by Western blot analysis. FadA polymers were only detected in E. coli expressing FadAc, but not in mFadA or the vector control. 2C. Reactivity of recombinant FadA and its variants with anti-amyloid fibril antibody OC. A total of 10 μg each of recombinant protein mFadA, FadAc, FadA-L-9A, FadA-L14A, FadA-S71A, and FadA-L76A purified from E. coli was slot-blotted onto nitrocellulose and incubated with polyclonal OC antibody at 1:5,000 dilution. […] The fluorescent intensity was measured at excitation wavelength of 440 nm and emission wavelength of 500 nm. […] The fluorescent intensity was measured at excitation wavelength of 440 nm and emission wavelength of 500 nm. […] FadA protein was detected using anti-FadA mAb 7H7 at 1:4,000 dilution. […]

| Molecule | formation of detergent-resistant polymers |
| --- | --- |
| B1 | formed detergent-resistant polymers |
| B5 | did not form polymers |

System: Fn binding to human CRC cells DLD1
Assay: Cell culture attachment assay, DLD1
Type: cell-based
Conditions: 50 μg FadAc pre-incubated with DLD1 for 45 min

| Molecule | inhibition of Fn binding to DLD1 |
| --- | --- |
| B1 | effectively inhibited |

— US12030929B2, “Fusobacterium nucleatum amyloid-like FadA for diagnosis and treatment of Fn-mediated pathogenesis” (The Trustees of Columbia University in the City of New York, priority 2021, dated 2024)
